Fewer inactive variants are shown than the library holds.
B1: TPR 5TU (parent)
chain: GGAUCUUCUCGAUCUAACAAAAAAGACAAAUCUGCCACAAAGCUUGAGAGCAUCUUCGGAUGCAGAGGCGGCAGCCUUCGGUGGCGCGAUAGCGCCAACGUUCUCAACUAUGACACGCAAAACGCGUGCUCCGUUGAAUGGAGUUUAUCAUG

Variants of: B1
Test: polymerase ribozyme fitness, log enrichment relative to wild type (log ratio); higher = more active; in vitro selection for triplet polymerase activity
In short: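 After PCR construction and transcription, each subunit's mutant library from a heterodimeric triplet polymerase ribozyme was annealed with a biotinylated primer, the partner subunit and triplets. Incubation was frozen, at −7 °C, and extended constructs were gel-excised, bound to streptavidin beads and amplified by RT-PCR, in one selection round done in triplicate. Fitness is the logarithm of a genotype's enrichment divided by that of the wild type, from inverse-variance-weighted replicate averages of Illumina-sequenced inputs and outputs. The base of the logarithm is 2, and genotypes needed ≥10 input reads and ≥1 read per output.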

| Variant | polymerase ribozyme fitness (log ratio) |
| --- | --- |
| A29U G50C A52C A64C U77C G92C G94A C95A A115C U139G | ≤ -4.2 |
| C27G A37U U55A U56A G70A G84C C108U | ≤ -4.2 |
| A28G A106C G133U A142C | ≤ -4.2 |
| A28U A39U | ≤ -4.2 |
| C27A U44A C85A A107C U148C | ≤ -4.2 |
| C27A C32U G46A G86U C105A | ≤ -4.2 |
| A28U A29U G74C C79G A89C C118A A120U A122G C125G | ≤ -4.2 |
| A28G C57A U61A C76A G88A C93U U102G | ≤ -4.2 |
| A29U G59A G140A | ≤ -4.2 |
| C27U C51U U53A U101G | -3.98 |
| A28U C79A C87G C96G | ≤ -4.2 |
| A28G U33G G34U G59C U104G C118U | ≤ -4.2 |
| A30C C43G U45A C87A C103A | ≤ -4.2 |
| A29C G48C C79A A122G G124U U144A U145G G152U | ≤ -4.2 |
| A29G A52C C57U C93U | ≤ -4.2 |
| C27A A49C U90G U145C | ≤ -4.2 |
| C27A A28G C43A G58C C95U C105G | ≤ -4.2 |
| A28C A52G C76G A91U U146G | ≤ -4.2 |
| A28U C79G | ≤ -4.2 |
| A29U A47C U55G C87U A98G | ≤ -4.2 |
| A28U U55G C85G G88A A89U C103U G143C | ≤ -4.2 |
| A30C A39U U44A U53A C93A | ≤ -4.2 |
| A28C A47C G62C C108G A122C | ≤ -4.2 |
| C27U G141C | -2.54 |

| Variant | polymerase ribozyme fitness (log ratio) |
| --- | --- |
| C27A A30C A89G G92A C105U G140U | -3.96 |
| A29C G42U C54G C93G G94C A98U G136A A142G G152U | ≤ -4.2 |
| C27U C93U | -3.3 |
| A28G A41G U45A G94C A97U | -3.76 |
| A29C C85U | -3.79 |
| A28U G67C U77A U90C C95U C105U A142G | ≤ -4.2 |
| A29C U55A C57U U90G A91C U148G | ≤ -4.2 |
| C27U U61G U82G A89U A91G G100A A113U G140U | ≤ -4.2 |
| A30C G42A C54U G58A U90G C93G C96U C125A U148A | ≤ -4.2 |
| A28U U45A C57U A60C G84U A98U G117C | ≤ -4.2 |
| A28U A40C C75U G83U G133A | ≤ -4.2 |
| C27A A29G U33G C35A A60G C93G A97G A120U G133U U134G | ≤ -4.2 |
| A26U U151C | ≤ -4.2 |
| A30C C35U G59A G88U G117A | ≤ -4.2 |
| A30C C95G A119U C132U | ≤ -4.2 |
| A28C U33G G50A C95A U134A | ≤ -4.2 |
| A29U A40U G68U C69U G92A G140C | ≤ -4.2 |
| A29C G67C A89U G94U | ≤ -4.2 |
| A29C A52G C87U G100C A138U U139A A147C | ≤ -4.2 |
| C27U C35U A49U C51G U53A G86U U151G | ≤ -4.2 |
| C27A U53A A119C | ≤ -4.2 |
| C27G C35U G74U C118U U130A A137U | ≤ -4.2 |
| A29U U44A C85G G124A G152A | ≤ -4.2 |
| A29G U55G G94A C108A A119G | ≤ -4.2 |

| Variant | polymerase ribozyme fitness (log ratio) |
| --- | --- |
| C27A A49C G59C G74C G136U | ≤ -4.2 |
| C27G C57U A91U C95A C131G U134G G140A | ≤ -4.2 |
| A29U G92C U102C C116U | ≤ -4.2 |
| C27U U33C A73G C85U | -0.859 |
| C27G A39G C93G G112A C129G | ≤ -4.2 |
| A28G A39U U53A G71A C93A | ≤ -4.2 |
| C27A A60U A91U A106U | ≤ -4.2 |
| A28G A29U | -3.79 |
| C27U U45A G71A C75A A89U C118A | ≤ -4.2 |
| A28U U44A C87G A106C | ≤ -4.2 |
| A28C U31G G50C A52C G74A G80U G86U A121U | ≤ -4.2 |
| A26U U31C A52U A73G C87A A107G | ≤ -4.2 |
| C27A C85A | ≤ -4.2 |
| A29U U31G C72U G83C | ≤ -4.2 |
| C27U A30G A52C | ≤ -4.2 |
| A28U U61A G74C | ≤ -4.2 |
| A26U G84A C118A | -3.09 |
| A29U C38U G86A | ≤ -4.2 |
| A29U C76A C87A C93A C129A | ≤ -4.2 |
| A26U G59C C103G A106C C132U | ≤ -4.2 |
| A29C A39G U139A | ≤ -4.2 |
| A28U A40U A49C G68U U90G C96U A107G A110C | ≤ -4.2 |
| A29C C57G G71A U90C | ≤ -4.2 |
| A30C A52G A106C U146C | ≤ -4.2 |

| Variant | polymerase ribozyme fitness (log ratio) |
| --- | --- |
| C27U C32A G46U A47C U53A C87G | ≤ -4.2 |
| A30C G46U G94U G143A | ≤ -4.2 |
| A29C U53A G84C C93U A121G C125G | ≤ -4.2 |
| A29C A47U C76G C79A A97U C99A C125G U134A U144G | ≤ -4.2 |
| A29U A40C G46A G67A G81A C85G A113C A137G | ≤ -4.2 |
| A26U G50C | ≤ -4.2 |
| A26U U56A C93U | -3.4 |
| C27G A52C U53A A64G C69A U78A C79A C87G G94C C95A A142C | ≤ -4.2 |
| C27G G58C G86A C105A U144A | ≤ -4.2 |
| C27U C118U | -1.44 |
| C27U U55A | -0.901 |
| A28U U33G C43G A47C U55G U56A G84A C87G A106G A107C G133U G140U | ≤ -4.2 |
| C27U A120G C125A | -1.81 |
| C27G C32G C36G A73G C93G U135A | -4.18 |
| C27U G50C C87A C105G | ≤ -4.2 |
| C27A C54G G67U G84C | ≤ -4.2 |
| A28U A37C U139C U151G | ≤ -4.2 |
| A29U A49C G68U A73C A91C C103G | ≤ -4.2 |
| C27U G83A C125U U130G U135G | ≤ -4.2 |
| C27G C76A | -3.63 |
| A29U A37C G80A G88C G133U | ≤ -4.2 |
| A26U U82A A106C | -3.93 |
| A29C C35U U53A C76G G92A C99A A122G G124U | ≤ -4.2 |
| A29C A49G C69G U77G C79U C116U U146A | ≤ -4.2 |

| Variant | polymerase ribozyme fitness (log ratio) |
| --- | --- |
| A29G U31C C36U C54G U82C G86C C93U | ≤ -4.2 |
| A29U A52G U55C U134A | ≤ -4.2 |
| C27U C76G G84U | ≤ -4.2 |
| A29U C96U G136U | ≤ -4.2 |
| A30C C63U A66C A73U C85A A91C U109G | ≤ -4.2 |
| C27U C57U G94A C95A G143A | ≤ -4.2 |
| A28G G88U G92A A98G G133U U144A | ≤ -4.2 |
| A28C G84U G88C A91G G124U | ≤ -4.2 |
| C27U G42A G67U C69A G117A A150C | ≤ -4.2 |
| A29U A37U C72G C95U C114U G143U | ≤ -4.2 |
| C27U A39U A73G C79U C93A | ≤ -4.2 |
| A30C C87G C99G C132A G140U | ≤ -4.2 |
| A29G C95G U127G | ≤ -4.2 |
| A29U U44G A49C C103G G141C | ≤ -4.2 |
| C27U U56A G84U G86C C114G U145A | ≤ -4.2 |
| A29C U44A G59U C72U C131G | ≤ -4.2 |
| C27G A39G G83A G143U | ≤ -4.2 |
| C27G G83A | -4.12 |
| A29C U33A A41U G42A G83C C96U C108G | ≤ -4.2 |
| C27U U53A C85G | -3.88 |
| A29U U101G U104G | ≤ -4.2 |
| A29G A60C A89G A110U G143A | ≤ -4.2 |
| A28C U45A G88A C96A G100A G143A | ≤ -4.2 |
| A28C U33G U77C U90G C93A U148C G152A | ≤ -4.2 |

| Variant | polymerase ribozyme fitness (log ratio) |
| --- | --- |
| A29U C54U G62A A113G U139G U148A | ≤ -4.2 |
| C27U A41C G81U C96A | -2.31 |
| C27U G65C A66C A73U C93A C108G C129G | -3.81 |
| C27G C51U C54A U78A G94C | ≤ -4.2 |
| C27U C51U G83A | -2.56 |
| C27U G48A C69A C96A A121G | ≤ -4.2 |
| A26U U56A A98G | -1.83 |
| A28G A49C C76U G94U A150G | ≤ -4.2 |
| A28C U56A C72U C76G | ≤ -4.2 |
| A26U U53A | -1.58 |
| C27U A41C C95U C125U | -2.83 |
| A29U C95U | -3.54 |
| A29U C95A | -3.68 |
| A30C C79U A91G C114U G136C | ≤ -4.2 |
| A28G C93U C118A | ≤ -4.2 |
| C27U A37C G59U G92C G117C | -3.65 |
| A26U G92A | -3.86 |
| A29U A64C C85G | ≤ -4.2 |
| C27U A47U A49C G117A | ≤ -4.2 |
| A28G G94C G100U U134G | ≤ -4.2 |
| A30C C96G | -4.03 |
| A30C C87A | ≤ -4.2 |
| A28U G70U G83C C131U | ≤ -4.2 |
| A26U U134A | -3.96 |

| Variant | polymerase ribozyme fitness (log ratio) |
| --- | --- |
| C27U A49G | -2.49 |
| A29G C69U | ≤ -4.2 |
| A29U G84U U135A | ≤ -4.2 |
| A29C A37U C108U | -4.09 |
| A28G C32U G50A C85A | ≤ -4.2 |
| A29G G50A A52C U101G G133C | ≤ -4.2 |
| A29C A30U G42U C93U C105G U139G | ≤ -4.2 |
| A28G A41C G42U A66G C96G G133U U144G | -4.13 |
| A29U G59U C93U | ≤ -4.2 |
| A29U C54G U56G A60G | ≤ -4.2 |
| A29C G84A | -4.17 |
| C27G C105A C114A A119G | ≤ -4.2 |
| C27U G58A G59C C99U U102G A120C C125U | ≤ -4.2 |
| A29U A37G C54U C87G C116A | ≤ -4.2 |
| A29U G58U U61A U82A G86A A119G | ≤ -4.2 |
| C27G C75G C93A C103G U134A | ≤ -4.2 |
| A28C A30U C35G C87A C105U | -3.84 |
| A28C C57A A66U G71A C87A U102G A138C | ≤ -4.2 |
| A28U C43A U109G G141C | ≤ -4.2 |
| A29U G84A | ≤ -4.2 |
| A29U C93G | ≤ -4.2 |
| A29U A40G | -4.2 |
| A29G C35A U56C C69G G71U A91G A98U A138G | ≤ -4.2 |
